Data taken from article PMC3718016.

Experiments:
SRPK1(ΔSINT) = SRPK1(ΔSINT) (UniProt Q96SB4)
[1] = biological target: SRPK1(ΔN), SRPK1 without the N-terminus (UniProt Q96SB4)
[2] = biological target: SRPK1(ΔS), SRPK1 without the spacer insert domain (UniProt Q96SB4)
SRPK1(ΔNNT) = SRPK1(ΔNNT) (UniProt Q96SB4)
SRPK1(ΔNCT) = SRPK1(ΔNCT) (UniProt Q96SB4)
SRPK1(ΔSα1) = SRPK1(ΔSα1) (UniProt Q96SB4)
SRPK1(ΔSα2) = SRPK1(ΔSα2) (UniProt Q96SB4)

kcat/KSR (steady-state kinetics with maximum viscosity effect) (SRPK1(ΔSINT)): 5.3e+06 M⁻¹ s⁻¹
Km for SRSF1 (KSR), steady-state phosphorylation of SRSF1 [1]: 0.44 µM
Km for SRSF1 (KSR), steady-state phosphorylation of SRSF1 [2]: 0.14 µM
Km for SRSF1 (KSR), steady-state phosphorylation of SRSF1 (SRPK1(ΔNNT)): 0.038 µM
Km for SRSF1 (KSR), steady-state phosphorylation of SRSF1 (SRPK1(ΔNCT)): 0.41 µM
kcat/KSR (steady-state kinetics with maximum viscosity effect) (SRPK1(ΔSα1)): 2.2e+06 M⁻¹ s⁻¹
kcat/KSR (steady-state kinetics with maximum viscosity effect) (SRPK1(ΔSα2)): 6.9e+06 M⁻¹ s⁻¹
Substance: SR protein splicing factor 1 (SRSF1) (from UniProt Q07955 1-248) (natural protein)
